The numbers were not newly measured in article PMC8771847, which cites them from elsewhere.

This series has as its target Piezo1 (Mus musculus) (UniProt E2JF22).
Chain of UniProt E2JF22 (E2JF22 whole entry): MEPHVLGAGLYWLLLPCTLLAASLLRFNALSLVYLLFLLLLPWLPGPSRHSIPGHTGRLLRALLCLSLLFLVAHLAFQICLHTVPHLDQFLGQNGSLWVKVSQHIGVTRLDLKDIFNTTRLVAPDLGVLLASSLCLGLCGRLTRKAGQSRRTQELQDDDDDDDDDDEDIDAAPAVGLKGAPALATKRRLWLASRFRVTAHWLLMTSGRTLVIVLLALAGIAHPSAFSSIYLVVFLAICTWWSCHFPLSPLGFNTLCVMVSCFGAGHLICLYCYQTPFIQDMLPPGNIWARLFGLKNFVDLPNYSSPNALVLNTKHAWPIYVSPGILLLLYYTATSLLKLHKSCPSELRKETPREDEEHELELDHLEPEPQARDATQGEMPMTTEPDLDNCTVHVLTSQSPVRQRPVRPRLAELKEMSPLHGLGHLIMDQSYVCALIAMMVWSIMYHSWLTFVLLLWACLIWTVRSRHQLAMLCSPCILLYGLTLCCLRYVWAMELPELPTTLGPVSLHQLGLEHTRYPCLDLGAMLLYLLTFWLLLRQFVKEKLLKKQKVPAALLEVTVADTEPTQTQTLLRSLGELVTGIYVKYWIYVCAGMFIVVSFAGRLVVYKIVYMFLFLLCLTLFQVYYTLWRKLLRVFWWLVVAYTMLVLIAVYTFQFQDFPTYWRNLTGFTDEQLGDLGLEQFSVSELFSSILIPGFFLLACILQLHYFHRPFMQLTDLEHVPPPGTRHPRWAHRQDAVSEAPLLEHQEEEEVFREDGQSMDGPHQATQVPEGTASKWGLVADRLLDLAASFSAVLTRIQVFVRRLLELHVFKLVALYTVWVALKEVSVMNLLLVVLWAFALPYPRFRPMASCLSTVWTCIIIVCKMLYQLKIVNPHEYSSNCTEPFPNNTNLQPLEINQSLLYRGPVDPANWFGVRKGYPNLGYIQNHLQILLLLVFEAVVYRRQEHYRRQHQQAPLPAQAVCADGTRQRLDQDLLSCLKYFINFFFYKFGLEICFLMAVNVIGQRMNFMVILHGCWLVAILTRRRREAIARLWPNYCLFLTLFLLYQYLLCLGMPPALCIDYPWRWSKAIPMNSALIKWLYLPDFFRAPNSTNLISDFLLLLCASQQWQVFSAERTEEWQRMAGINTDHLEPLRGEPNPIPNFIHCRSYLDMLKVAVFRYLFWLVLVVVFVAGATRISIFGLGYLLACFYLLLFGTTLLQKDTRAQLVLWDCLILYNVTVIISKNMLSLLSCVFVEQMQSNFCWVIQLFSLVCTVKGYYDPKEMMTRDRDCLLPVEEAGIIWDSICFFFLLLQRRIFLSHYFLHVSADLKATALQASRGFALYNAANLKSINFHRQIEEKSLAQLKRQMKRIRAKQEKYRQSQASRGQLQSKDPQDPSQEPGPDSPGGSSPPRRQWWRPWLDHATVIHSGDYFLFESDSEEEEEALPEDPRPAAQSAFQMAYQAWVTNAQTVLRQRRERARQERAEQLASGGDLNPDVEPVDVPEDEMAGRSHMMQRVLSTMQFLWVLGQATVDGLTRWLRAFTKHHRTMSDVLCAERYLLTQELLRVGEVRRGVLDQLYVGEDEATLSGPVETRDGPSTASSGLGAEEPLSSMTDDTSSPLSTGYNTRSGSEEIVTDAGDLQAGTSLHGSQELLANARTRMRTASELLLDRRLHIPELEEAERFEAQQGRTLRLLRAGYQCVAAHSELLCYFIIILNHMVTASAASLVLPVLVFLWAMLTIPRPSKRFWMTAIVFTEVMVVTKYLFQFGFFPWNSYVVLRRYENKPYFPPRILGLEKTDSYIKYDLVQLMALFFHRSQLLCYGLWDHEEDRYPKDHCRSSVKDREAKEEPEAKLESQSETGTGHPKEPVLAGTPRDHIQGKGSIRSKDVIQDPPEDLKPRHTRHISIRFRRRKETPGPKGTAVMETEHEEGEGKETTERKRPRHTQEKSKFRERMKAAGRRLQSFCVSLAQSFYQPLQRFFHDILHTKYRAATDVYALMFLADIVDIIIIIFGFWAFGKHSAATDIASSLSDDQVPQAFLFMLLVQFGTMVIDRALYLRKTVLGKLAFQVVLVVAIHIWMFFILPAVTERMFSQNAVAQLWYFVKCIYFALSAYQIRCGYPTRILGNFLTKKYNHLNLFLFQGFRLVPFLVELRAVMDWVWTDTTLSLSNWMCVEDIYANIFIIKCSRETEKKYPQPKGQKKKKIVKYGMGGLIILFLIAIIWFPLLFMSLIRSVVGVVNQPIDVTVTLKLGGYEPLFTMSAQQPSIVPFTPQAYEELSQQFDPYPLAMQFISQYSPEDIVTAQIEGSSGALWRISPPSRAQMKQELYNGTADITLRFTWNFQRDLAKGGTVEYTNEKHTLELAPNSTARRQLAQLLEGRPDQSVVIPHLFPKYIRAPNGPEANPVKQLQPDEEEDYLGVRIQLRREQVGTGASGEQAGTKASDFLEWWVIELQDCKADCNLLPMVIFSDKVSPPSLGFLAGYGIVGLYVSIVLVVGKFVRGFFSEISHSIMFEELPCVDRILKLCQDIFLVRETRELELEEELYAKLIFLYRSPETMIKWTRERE

By Kd is commonly meant the constant that tells how readily two partners part at equilibrium. In the case of GsMTx-4 (from UniProt Q7YT39), the Kd is 2 µM.
